Reference: US20120122128A1
pKd: −log10 of the molar value.

Columns and labels:
[1] = target: SNAP-25 peptide comprising amino acids 134-197 of SEQ ID NO: 5 (human); experiment: SPR (BIAcore 3000), peptide amine-coupled to CM5 chip, antibody as analyte, 1:1 fit
[2] = target: SNAP-25 peptide comprising amino acids 134-206 of SEQ ID NO: 5 (human); experiment: as above
[3] = target: FGFR3 of SEQ ID NO: 25 (Homo sapiens (Human)) (UniProt P22607); experiment: cell-based or functional assay
Sequence of FGFR3 of SEQ ID NO: 25 (Homo sapiens (Human)) (P22607 other isoform, or with tags, fused parts or gaps limits assumed): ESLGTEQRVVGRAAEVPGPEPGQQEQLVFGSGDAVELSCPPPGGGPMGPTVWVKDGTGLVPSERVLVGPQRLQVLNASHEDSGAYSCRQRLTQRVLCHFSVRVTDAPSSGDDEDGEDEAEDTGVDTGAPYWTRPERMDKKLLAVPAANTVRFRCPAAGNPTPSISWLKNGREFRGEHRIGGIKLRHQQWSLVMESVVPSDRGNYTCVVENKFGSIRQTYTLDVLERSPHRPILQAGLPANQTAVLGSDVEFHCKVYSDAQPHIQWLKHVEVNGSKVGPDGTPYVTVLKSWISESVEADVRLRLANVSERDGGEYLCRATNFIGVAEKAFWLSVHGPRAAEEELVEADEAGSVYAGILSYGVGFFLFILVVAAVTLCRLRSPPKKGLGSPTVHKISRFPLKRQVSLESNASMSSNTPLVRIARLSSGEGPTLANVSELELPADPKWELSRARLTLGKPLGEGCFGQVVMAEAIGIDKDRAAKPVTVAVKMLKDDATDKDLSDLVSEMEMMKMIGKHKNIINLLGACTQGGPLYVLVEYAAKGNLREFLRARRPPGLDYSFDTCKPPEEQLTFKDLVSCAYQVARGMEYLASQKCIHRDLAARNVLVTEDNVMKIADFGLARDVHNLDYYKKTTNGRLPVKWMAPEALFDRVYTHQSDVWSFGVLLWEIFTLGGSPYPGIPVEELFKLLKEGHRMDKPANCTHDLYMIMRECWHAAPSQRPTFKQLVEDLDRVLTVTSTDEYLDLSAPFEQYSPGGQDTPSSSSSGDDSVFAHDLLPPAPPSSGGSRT

Row | Substance | pKd [1] | koff [1] | kon [1] | pKd [2] | koff [2] | kon [2] | EC50 (nM) of SNAP-25 cleavage, Western blot, PC-12 cells transfected with FGFR3 [3] | EC50 (nM) of SNAP-25 cleavage, Western blot, SiMa cells transfected with FGFR3 [3]
1 | MC-6053 α-SNAP-25 mouse monoclonal antibody (Research & Diagnostic Antibodies) | 9.29 | 0.00118 s⁻¹ | 2.32e+06 M⁻¹ s⁻¹ | 6.62 | 2.56e-05 s⁻¹ | – | – | –
2 | MC-6050 α-SNAP-25 mouse monoclonal antibody (Research & Diagnostic Antibodies) | 9.30 | 0.000882 s⁻¹ | 1.78e+06 M⁻¹ s⁻¹ | 4.70 | 0.00607 s⁻¹ | 306 M⁻¹ s⁻¹ | – | –
3 | BoNT/A complex (from UniProt P0DPI0 2-1296) (enzyme) | – | – | – | – | – | – | 0.263 nM | 0.0377 nM
